Data from paper PMC5084272.
Values joined by “and” are separate entries in the source; they are usually repeats but may differ in a detail not shown here. Identical values can stand only once.

Target: EGFP-labeled Kif15 (EGFP-Kif15) (human)
Assay: single-molecule fluorescence intensity and photobleaching steps

EGFP-labeled Kif15 (EGFP-Kif15) (natural protein)
stoichiometry N: 2 and > 2
